Measurements as given in PMC4760772, “The Development of a Recombinant scFv Monoclonal Antibody Targeting Canine CD20 for Use in Comparative Medicine” (PLoS ONE, 2016).

Key:
[1] = target: T1, fluorescein-labeled peptide corresponding to human CD20 (NCEPANPSEKNSPSTQYCYS) (Homo sapiens (Human)., fluorescein (FITC) label, position not stated); experiment: fluorescence polarisation; antibody titrated against 30 nM fluorescein-labeled human CD20 peptide in PBS, 0.05% Tween-20; 1 hr at room temperature, read at 21°C; purified mouse immunoglobulins subtracted as nonspecific binding; conditions: both partners purified
T1 construct: also called FITC tagged human CD20 peptide; fluorescent human CD20 peptide
T1 chain: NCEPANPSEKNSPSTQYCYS

[2] = target: T2, biotinylated canine CD20 peptide (biotin-SGSGNCDPANPSEKNSLSIQYCGS) (canine, biotin on the N-terminus); experiment: BLI; without DTT
T2 peptide: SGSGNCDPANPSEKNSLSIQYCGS

[3] = target: T3, canine CD20 protein in clinically-derived canine cells and tissue (Canis lupus familiaris (Dog) (Canis …, UniProt Q3C2E2)); experiment: immunostaining of cells or tissue; immunohistochemistry on formalin fixed paraffin embedded canine lymphoma tissue (tissue micro array), heat induced antigen retrieval; conditions: one partner purified
T3 construct: canine CD20 on normal B cells and B-cell lymphoma cells of dogs; also called membranous CD20; CD20 in canine tissue

[4] = target: T4, bacterially expressed his-tagged canine CD20 protein (amino acids 140–190) (Canis lupus familiaris, UniProt Q3C2E2); experiment: immunoblot; purified his-tagged canine CD20 (140-190) after electrophoresis without and with DTT, blotted with NCD1.2; conditions: both partners purified
T4 construct: canine CD20, amino acids 140-190 comprising the extracellular domain; also called recombinant canine CD20 protein; His-tagged CD20 protein; source: bacterially expressed, purified by nickel chromatography

[5] = target: T2, biotinylated canine CD20 peptide …; experiment: BLI; with DTT
[6] = target: T5, biotinylated canine CD20 peptide (biotin-SGSGNCDPANPSEKNSLSIQYCGS) (Canis lupus familiaris, biotin on the N-terminus); experiment: BLI; Octet RED, as a1 but in the presence of DTT; relative Kd; conditions: both partners purified
T5 construct: spacer between the biotin and the CD20 stretch; also called biotinylated CD20 peptide
T5 chain: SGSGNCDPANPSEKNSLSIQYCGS

[7] = target: T5, biotinylated canine CD20 peptide …; experiment: BLI; Octet RED, biotinylated CD20 peptide on streptavidin biosensors, antibody 32 nM to 0.5 nM in solution, 30°C, PBS pH 7.4 with 0.02% Tween 20, 0.005% sodium azide, 100 μg/mL BSA; global fit 1:1; relative Kd; absence of DTT; conditions: both partners purified
[8] = target: T6, endogenous canine CD20 protein in 3132 canine lymphoma cells (Canis lupus familiaris (Dog) (Canis …, UniProt Q3C2E2)); experiment: immunoblot; lysates or chemical fractions of 3132 canine lymphoma cells, and lysates of H1299 cells transfected with human GFP-CD20, blotted with NCD1.2; conditions: one partner purified
T6 construct: canine CD20, endogenous protein; also called authentic canine CD20 protein

[9] = target: T4, bacterially expressed his-tagged canine …; experiment: ELISA; CHO supernatants (diluted 1:40 or 1:80) on His-tagged CD20 protein or on biotinylated CD20 peptide; detected with peroxidase conjugated protein A, TMB, OD 450 nm; conditions: one partner purified

T4 sequence (Q3C2E2 140-190): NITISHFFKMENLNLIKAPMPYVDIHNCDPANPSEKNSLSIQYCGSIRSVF
T6 sequence (Q3C2E2 whole entry): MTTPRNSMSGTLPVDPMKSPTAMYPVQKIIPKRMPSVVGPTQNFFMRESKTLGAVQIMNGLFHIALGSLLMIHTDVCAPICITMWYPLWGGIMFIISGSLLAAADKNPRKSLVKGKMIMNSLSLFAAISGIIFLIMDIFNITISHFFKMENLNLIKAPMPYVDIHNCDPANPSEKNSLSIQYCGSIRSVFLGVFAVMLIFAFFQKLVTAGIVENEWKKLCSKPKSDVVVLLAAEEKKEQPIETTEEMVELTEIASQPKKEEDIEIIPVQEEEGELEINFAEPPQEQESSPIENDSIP
T3 sequence (Q3C2E2 whole entry): as above

B1: monoclonal antibody NCD1.2 (antibody, V domains shown)
VH: VESGGGLVQPGDSLRLSCATSGFTFTDYFMSWVRQPPGKSLEWLGLIRNKVNGYTAEYSASVKGRFTISRDNSRGILYLQMYTLRAEDSATYYCVRASTGTSFVYWGQGTLVTVSA
VL: AAAFSNPVTLGTSVSISCRSSKSLLHRNGFTYLYWYLQRPGQSPQLLIYQMSNLASGVPDRFSSSGSGTDFTLRISRVEAEDVGVYYCAQNLELPFTFGGGTKLELK
notes: VH cloned from the NCD1.2 hybridoma, as the VH of m9 and m10 (scFv-3 and scFv-7; identical VH genes, identical CDRs); the first residues of the cloned VH come from degenerate PCR primers; constant region of a mouse IgG; VL as the VL of m9 (scFv-3) or of m10 (scFv-7); both light chain mRNAs are made by the hybridoma; mouse light chain constant region; not described; IgG; also called NCD1.2 MAB; …
- binding result [1]: binds
- koff [2]: 3.19e-05 s⁻¹
- binding result [3]: binds
- binding result [4]: binds
- koff [5]: 3.41e-05 s⁻¹
- Kd [6]: 0.31 nM
- Kd [7]: 0.34 nM
- binding result [8]: binds

B2: scFv-3 secreted from CHO cells (scFv, V domains shown)
VH: EVNVVESGGGLVQPGDSLRLSCATSGFTFTDYFMSWVRQPPGKSLEWLGLIRNKVNGYTAEYSASVKGRFTISRDNSRGILYLQMYTLRAEDSATYYCVRASTGTSFVYWGQGTLVTVSA
VL: DIVMTQPPAIMSASPGEKVTMTCSASSSVSYMHWYQQKSGTSPKRWIYDTSKLASGVPDRFSSSGSGTDFTLRISRVEAEDVGVYYCAQNLELPFTFGGGTKLEIK
notes: VL of scFv-3, as in m9; linker, as in m9; VH of scFv-3, as in m9; Cloned into the KpnI-EcoRI sites of pCDNA3.1; also called scFv-3 supernatant
- binding result [9]: binds

B3: scFv-7 secreted from CHO cells (scFv, V domains shown)
VH: EVQGVESGGGLVQPGDSLRLSCATSGFTFTDYFMSWVRQPPGKSLEWLGLIRNKVNGYTAEYSASVKGRFTISRDNSRGILYLQMYTLRAEDSATYYCVRASTGTSFVYWGQGTLVTVSA
VL: IVMTQAAAFSNPVTLGTSVSISCRSSKSLLHRGFTYLYWYLQRPGQSPQLLIYQMSNLASGVPDRFSSSGSGTDFTLRISRVEAEDVGVYYCAQNLELPFTFGGGTKLELK
notes: VL of scFv-7, as in m10; linker, as in m10; VH of scFv-7, as in m10; Cloned into the KpnI-EcoRI sites of pCDNA3.1; also called scFv-7 supernatant
- binding result [9]: binds
